For assay [1], the target named is Herceptin antibody labelled with biotin. Put plainly: mass photometry; consecutive measurement with 25 mM free biotin, release of Herc-B from immobilised streptavidin.
The target is the same in assay [2]. Nature of the assay: mass photometry; first 500 s after 25 mM free biotin, release of Herc-B from immobilised streptavidin.
Assay [3] shares this target. Nature of the assay: mass photometry; first 500 s after 25 mM free biotin, compared with the PBS control.
For assay [4] the target is unchanged. Put plainly: mass photometry; control with PBS as release agent, streptavidin-coated coverslip loaded with Herc-B.
For assay [5] the target is unchanged. Put plainly: mass photometry; consecutive measurement with 25 mM free biotin, compared with the PBS control.

For “streptavidin (from UniProt P22629 37-163)”, the Difference UB - B in assay [1] worked out at 84 counts; in assay [2], 179 counts; in assay [4] it was 17 counts. Also, the Unbinding (UB) events, MW 76 to 273 kDa in assay [1] was 565 counts; in assay [2], 460 counts; in assay [4], 161 counts. The Percentage increase to control in assay [3] was determined as 90.5%; in assay [5] it was 79.8%.

The values above are taken from patent US20240125796A1.
